# In patent publication US20110294738A1, “PTHR1 RECEPTOR COMPOUNDS” (priority 2008, published 2011):
# * marks the point of attachment. Palmitoyl = CCCCCCCCCCCCCCCC(=O)*
# Molecular target: PTHR1 receptor
# Sequence (P25961 whole entry): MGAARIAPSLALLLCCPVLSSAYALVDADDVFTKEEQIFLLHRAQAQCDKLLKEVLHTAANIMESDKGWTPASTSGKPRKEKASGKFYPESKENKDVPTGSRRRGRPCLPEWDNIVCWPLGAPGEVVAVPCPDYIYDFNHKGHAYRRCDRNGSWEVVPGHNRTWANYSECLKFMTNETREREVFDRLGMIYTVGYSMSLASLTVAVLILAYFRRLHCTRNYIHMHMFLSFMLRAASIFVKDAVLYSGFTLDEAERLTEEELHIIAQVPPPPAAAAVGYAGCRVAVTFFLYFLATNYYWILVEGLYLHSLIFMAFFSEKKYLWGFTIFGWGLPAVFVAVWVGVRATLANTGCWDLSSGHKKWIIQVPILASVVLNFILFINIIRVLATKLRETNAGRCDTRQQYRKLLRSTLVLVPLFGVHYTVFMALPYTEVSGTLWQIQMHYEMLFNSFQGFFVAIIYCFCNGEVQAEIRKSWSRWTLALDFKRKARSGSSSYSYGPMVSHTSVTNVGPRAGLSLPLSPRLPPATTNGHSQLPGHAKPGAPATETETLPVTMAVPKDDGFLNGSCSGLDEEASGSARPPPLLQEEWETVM
Binder,Fold Shift of EC50,Inhibition of Maximal Response
Palmitoyl-TNAGRSDTRQQYRKLA-NH2 (SMILES CCCCCCCCCCCCCCCC(=O)N[C@H](C(=O)N[C@@H](CC(N)=O)C(=O)N[C@@H](C)C(=O)NCC(=O)N[C@@H](CCCNC(=N)N)C(=O)N[C@@H](CO)C(=O)N[C@@H](CC(=O)O)C(=O)N[C@H](C(=O)N[C@@H](CCCNC(=N)N)C(=O)N[C@@H](CCC(N)=O)C(=O)N[C@@H](CCC(N)=O)C(=O)N[C@@H](Cc1ccc(O)cc1)C(=O)N[C@@H](CCCNC(=N)N)C(=O)N[C@@H](CCCCN)C(=O)N[C@@H](CC(C)C)C(=O)N[C@@H](C)C(N)=O)[C@@H](C)O)[C@@H](C)O) [Compound 88],2.8 fold,-25%
Palmitoyl-LYLHSLIFMAFFSEKKYLWGFT-NH2 (SMILES CCCCCCCCCCCCCCCC(=O)N[C@@H](CC(C)C)C(=O)N[C@@H](Cc1ccc(O)cc1)C(=O)N[C@@H](CC(C)C)C(=O)N[C@@H](Cc1c[nH]cn1)C(=O)N[C@@H](CO)C(=O)N[C@@H](CC(C)C)C(=O)N[C@H](C(=O)N[C@@H](Cc1ccccc1)C(=O)N[C@@H](CCSC)C(=O)N[C@@H](C)C(=O)N[C@@H](Cc1ccccc1)C(=O)N[C@@H](Cc1ccccc1)C(=O)N[C@@H](CO)C(=O)N[C@@H](CCC(=O)O)C(=O)N[C@@H](CCCCN)C(=O)N[C@@H](CCCCN)C(=O)N[C@@H](Cc1ccc(O)cc1)C(=O)N[C@@H](CC(C)C)C(=O)N[C@@H](Cc1c[nH]c2ccccc12)C(=O)NCC(=O)N[C@@H](Cc1ccccc1)C(=O)N[C@H](C(N)=O)[C@@H](C)O)[C@@H](C)CC) [Compound 34],1.2 fold,4.2%
Palmitoyl-TNAGRSDTRQQYRKAL-NH2 (SMILES CCCCCCCCCCCCCCCC(=O)N[C@H](C(=O)N[C@@H](CC(N)=O)C(=O)N[C@@H](C)C(=O)NCC(=O)N[C@@H](CCCNC(=N)N)C(=O)N[C@@H](CO)C(=O)N[C@@H](CC(=O)O)C(=O)N[C@H](C(=O)N[C@@H](CCCNC(=N)N)C(=O)N[C@@H](CCC(N)=O)C(=O)N[C@@H](CCC(N)=O)C(=O)N[C@@H](Cc1ccc(O)cc1)C(=O)N[C@@H](CCCNC(=N)N)C(=O)N[C@@H](CCCCN)C(=O)N[C@@H](C)C(=O)N[C@@H](CC(C)C)C(N)=O)[C@@H](C)O)[C@@H](C)O) [Compound 89],2.3 fold,-20.4%
Palmitoyl-TNAGRSDTRQQYRKLLFA-NH2 (SMILES CCCCCCCCCCCCCCCC(=O)N[C@H](C(=O)N[C@@H](CC(N)=O)C(=O)N[C@@H](C)C(=O)NCC(=O)N[C@@H](CCCNC(=N)N)C(=O)N[C@@H](CO)C(=O)N[C@@H](CC(=O)O)C(=O)N[C@H](C(=O)N[C@@H](CCCNC(=N)N)C(=O)N[C@@H](CCC(N)=O)C(=O)N[C@@H](CCC(N)=O)C(=O)N[C@@H](Cc1ccc(O)cc1)C(=O)N[C@@H](CCCNC(=N)N)C(=O)N[C@@H](CCCCN)C(=O)N[C@@H](CC(C)C)C(=O)N[C@@H](CC(C)C)C(=O)N[C@@H](Cc1ccccc1)C(=O)N[C@@H](C)C(N)=O)[C@@H](C)O)[C@@H](C)O) [Compound 86],3.6 fold,5.2%

# Results, then the binder that gave them:
Fold Shift of EC50,Inhibition of Maximal Response,Binder
6.9 fold,19.5%,Palmitoyl-TNAGRSDTRQQYRKLLFS-NH2 (SMILES CCCCCCCCCCCCCCCC(=O)N[C@H](C(=O)N[C@@H](CC(N)=O)C(=O)N[C@@H](C)C(=O)NCC(=O)N[C@@H](CCCNC(=N)N)C(=O)N[C@@H](CO)C(=O)N[C@@H](CC(=O)O)C(=O)N[C@H](C(=O)N[C@@H](CCCNC(=N)N)C(=O)N[C@@H](CCC(N)=O)C(=O)N[C@@H](CCC(N)=O)C(=O)N[C@@H](Cc1ccc(O)cc1)C(=O)N[C@@H](CCCNC(=N)N)C(=O)N[C@@H](CCCCN)C(=O)N[C@@H](CC(C)C)C(=O)N[C@@H](CC(C)C)C(=O)N[C@@H](Cc1ccccc1)C(=O)N[C@@H](CO)C(N)=O)[C@@H](C)O)[C@@H](C)O) [Compound 85]
9.1 fold,-25.2%,Palmitoyl-TNAGRSDTRQQYRKLLK-NH2 (SMILES CCCCCCCCCCCCCCCC(=O)N[C@H](C(=O)N[C@@H](CC(N)=O)C(=O)N[C@@H](C)C(=O)NCC(=O)N[C@@H](CCCNC(=N)N)C(=O)N[C@@H](CO)C(=O)N[C@@H](CC(=O)O)C(=O)N[C@H](C(=O)N[C@@H](CCCNC(=N)N)C(=O)N[C@@H](CCC(N)=O)C(=O)N[C@@H](CCC(N)=O)C(=O)N[C@@H](Cc1ccc(O)cc1)C(=O)N[C@@H](CCCNC(=N)N)C(=O)N[C@@H](CCCCN)C(=O)N[C@@H](CC(C)C)C(=O)N[C@@H](CC(C)C)C(=O)N[C@@H](CCCCN)C(N)=O)[C@@H](C)O)[C@@H](C)O) [Compound 84]
4.1 fold,8%,Palmitoyl-TNAGRSDTRQQYRKLLA-NH2 (SMILES CCCCCCCCCCCCCCCC(=O)N[C@H](C(=O)N[C@@H](CC(N)=O)C(=O)N[C@@H](C)C(=O)NCC(=O)N[C@@H](CCCNC(=N)N)C(=O)N[C@@H](CO)C(=O)N[C@@H](CC(=O)O)C(=O)N[C@H](C(=O)N[C@@H](CCCNC(=N)N)C(=O)N[C@@H](CCC(N)=O)C(=O)N[C@@H](CCC(N)=O)C(=O)N[C@@H](Cc1ccc(O)cc1)C(=O)N[C@@H](CCCNC(=N)N)C(=O)N[C@@H](CCCCN)C(=O)N[C@@H](CC(C)C)C(=O)N[C@@H](CC(C)C)C(=O)N[C@@H](C)C(N)=O)[C@@H](C)O)[C@@H](C)O) [Compound 87]
2 fold,21%,Palmitoyl-TNAGRSDTRQQYRALL-NH2 (SMILES CCCCCCCCCCCCCCCC(=O)N[C@H](C(=O)N[C@@H](CC(N)=O)C(=O)N[C@@H](C)C(=O)NCC(=O)N[C@@H](CCCNC(=N)N)C(=O)N[C@@H](CO)C(=O)N[C@@H](CC(=O)O)C(=O)N[C@H](C(=O)N[C@@H](CCCNC(=N)N)C(=O)N[C@@H](CCC(N)=O)C(=O)N[C@@H](CCC(N)=O)C(=O)N[C@@H](Cc1ccc(O)cc1)C(=O)N[C@@H](CCCNC(=N)N)C(=O)N[C@@H](C)C(=O)N[C@@H](CC(C)C)C(=O)N[C@@H](CC(C)C)C(N)=O)[C@@H](C)O)[C@@H](C)O) [Compound 90]
7 fold,-5.8%,Palmitoyl-TNAGRSDTRQQYRKLLF-NH2 (SMILES CCCCCCCCCCCCCCCC(=O)N[C@H](C(=O)N[C@@H](CC(N)=O)C(=O)N[C@@H](C)C(=O)NCC(=O)N[C@@H](CCCNC(=N)N)C(=O)N[C@@H](CO)C(=O)N[C@@H](CC(=O)O)C(=O)N[C@H](C(=O)N[C@@H](CCCNC(=N)N)C(=O)N[C@@H](CCC(N)=O)C(=O)N[C@@H](CCC(N)=O)C(=O)N[C@@H](Cc1ccc(O)cc1)C(=O)N[C@@H](CCCNC(=N)N)C(=O)N[C@@H](CCCCN)C(=O)N[C@@H](CC(C)C)C(=O)N[C@@H](CC(C)C)C(=O)N[C@@H](Cc1ccccc1)C(N)=O)[C@@H](C)O)[C@@H](C)O) [Compound 83]
